Patent US20220089743A1 (Chugai, published 2022)
Like-named read-outs stand apart in the source and are kept apart here.

T1: HLA-DQ5.1 on Ba/F3 cells (human, limits assumed)
T1 construct: whole, on cells; also called Ba/F3-HLA-DQ5.1
T1 MHC II alpha: not shown
T1 MHC II beta: not shown

T2: HLA-DQ6.3 on Ba/F3 cells (human, UniProt P01920 33-230, limits assumed)
T2 construct: whole, on cells; also called Ba/F3-HLA-DQ6.3
T2 MHC II alpha: not shown
T2 MHC II beta: not shown

T3: HLA-DR on Ba/F3 cells (human, UniProt P01903 26-216; P79483 30-227, limits assumed)
T3 construct: whole, on cells; also called Ba/F3-HLA-DR
T3 MHC II alpha: not shown
T3 MHC II beta: not shown

T4: HLA-DQ2.2 on Ba/F3 cells (human, UniProt P01909 24-216, limits assumed)
T4 construct: whole, on cells; also called Ba/F3-HLA-DQ2.2
T4 MHC II alpha: not shown
T4 MHC II beta: not shown

T5: HLA-DQ8 on Ba/F3 cells (human, UniProt P01909 24-216; P01920 33-230, limits assumed)
T5 construct: whole, on cells; also called Ba/F3-HLA-DQ8
T5 MHC II alpha: not shown
T5 MHC II beta: not shown

T6: HLA-DQ7.3 on Ba/F3 cells (human, UniProt P01909 24-216; P01920 33-230, limits assumed)
T6 construct: whole, on cells; also called Ba/F3-HLA-DQ7.3
T6 MHC II alpha: not shown
T6 MHC II beta: not shown

B1: DQN0344H1013/L0620//DQN0385H1352/L0681-F6 (bispecific antibody)
heavy 1: QVQLVESGGGVVQPGRSLRLSCAASGFTFSSAYWMVWVRQAPGQGLEWMGAVYGGSDTTYYAKWTEGRFTISRDTSKNTLYLQMNSLRAEDTAVYYCAREPLNYYYYGELNVWGQGTLVTVSSASTKGPSVFPLAPSSKSTSGGTAALGCLVKDYFPEPVTVSWNSGALTSGVHTFPAVLKSSGLYSLSSVVTVPSSSLGTQTYICNVNHKPSNTKVDKRVEPKSCDKTHTCPPCPAPELRRGPSVFLFPPKPKDTLMISRTPEVTCVVVDVSHEDPEVKFNWYVDGVEVHNAKTKPREEQYNSTYRVVSVLTVLHQDWLNGKEYKCKVSNKALPAPIEKTISKAKGQPREPQVYTLPPSREEMTKNQVSLTCLVKGFYPSDIAVEWESNGQPENNYKTTPPYLDSDGSFFLYSKLTVDKSRWQEGNVFSCSVLHEALHAHYTREELSLSP
light 1: DIQMTQSPSSLSASVGDRVTITCQATENIYSGLAWYQQKPGKAPKLLIYYVSTLAYGIPARFSGSGSGTDFTLTISSLEPEDFAVYYCQTYEDVSAVTFGQGTKVEIKRTVAAPSVFIFPPSDEQLKSGTAEVVCLLNNFYPREAKVQWKVDNALQSGNSEESVTEQDSKDSTYSLSSTLTLSKADYEKHKVYACEVTHQGLSSPVTKSFNRGEC
heavy 2: QVQLVESGGGVVQPGRSLRLSCAASGFEFSEWYFMSWVRQAPGKGLEWVASIDTGSGSIDYAEWVEGRFTISRDNSKNTLYLQMNSLRAEDTAVYYCARDIGIDYNFWGPGTLVTVSSASTKGPSVFPLAPSSKSTSGGTAALGCLVEDYFPEPVTVSWNSGALTSGVHTFPAVLESSGLYSLSSVVTVPSSSLGTKTYICNVNHKPSNTKVDKRVEPKSCDKTHTCPPCPAPELRRGPSVFLFPPKPKDTLMISRTPEVTCVVVDVSHEDPEVKFNWYVDGVEVHNAKTKPREEQYNSTYRVVSVLTVLHQDWLNGKEYKCKVSNKALPAPIEKTISKAKGQPREPQVYTLPPSRKEMTKNQVSLTCLVKGFYPSDIAVEWESNGQPENNYKTTPPYLDSDGSFFLYSKLTVDKSRWQQGNVFSCSVLHEALHAHYTRKELSLSP
light 2: DIQMTQSPSSLSASVGDRVTITCQTTQSISSYLNWYQQKPGQPPKLLIYYASTKAEGIPARFSGSGLGTDFTLTISSLEPEDFAVYYCHYGISKVSFGQGTKVEIKRTVAAPSVFIFPPSDEQLKSGTAKVVCLLNNFYPREAKVQWKVDNALQSGNSKESVTEQDSKDSTYSLSSTLTLSKADYEKHKVYACEVTHQGLSSPVTKSFNRGEC
B2: DQN0344H1013/L0620//DQN0385H1353/L0681-F6 (bispecific antibody)
heavy 1: QVQLVESGGGVVQPGRSLRLSCAASGFTFSSAYWMVWVRQAPGQGLEWMGAVYGGSDTTYYAKWTEGRFTISRDTSKNTLYLQMNSLRAEDTAVYYCAREPLNYYYYGELNVWGQGTLVTVSSASTKGPSVFPLAPSSKSTSGGTAALGCLVKDYFPEPVTVSWNSGALTSGVHTFPAVLKSSGLYSLSSVVTVPSSSLGTQTYICNVNHKPSNTKVDKRVEPKSCDKTHTCPPCPAPELRRGPSVFLFPPKPKDTLMISRTPEVTCVVVDVSHEDPEVKFNWYVDGVEVHNAKTKPREEQYNSTYRVVSVLTVLHQDWLNGKEYKCKVSNKALPAPIEKTISKAKGQPREPQVYTLPPSREEMTKNQVSLTCLVKGFYPSDIAVEWESNGQPENNYKTTPPYLDSDGSFFLYSKLTVDKSRWQEGNVFSCSVLHEALHAHYTREELSLSP
light 1: DIQMTQSPSSLSASVGDRVTITCQATENIYSGLAWYQQKPGKAPKLLIYYVSTLAYGIPARFSGSGSGTDFTLTISSLEPEDFAVYYCQTYEDVSAVTFGQGTKVEIKRTVAAPSVFIFPPSDEQLKSGTAEVVCLLNNFYPREAKVQWKVDNALQSGNSEESVTEQDSKDSTYSLSSTLTLSKADYEKHKVYACEVTHQGLSSPVTKSFNRGEC
heavy 2: QVQLVESGGGVVQPGRSLRLSCAASGFTFAEWYFMSWVRQAPGKGLEWVASIDTGSGSIDYAEWVEGRFTISRDNSKNTLYLQMNSLRAEDTAVYYCARDIGIDYNFWGPGTLVTVSSASTKGPSVFPLAPSSKSTSGGTAALGCLVEDYFPEPVTVSWNSGALTSGVHTFPAVLESSGLYSLSSVVTVPSSSLGTKTYICNVNHKPSNTKVDKRVEPKSCDKTHTCPPCPAPELRRGPSVFLFPPKPKDTLMISRTPEVTCVVVDVSHEDPEVKFNWYVDGVEVHNAKTKPREEQYNSTYRVVSVLTVLHQDWLNGKEYKCKVSNKALPAPIEKTISKAKGQPREPQVYTLPPSRKEMTKNQVSLTCLVKGFYPSDIAVEWESNGQPENNYKTTPPYLDSDGSFFLYSKLTVDKSRWQQGNVFSCSVLHEALHAHYTRKELSLSP
light 2: DIQMTQSPSSLSASVGDRVTITCQTTQSISSYLNWYQQKPGQPPKLLIYYASTKAEGIPARFSGSGLGTDFTLTISSLEPEDFAVYYCHYGISKVSFGQGTKVEIKRTVAAPSVFIFPPSDEQLKSGTAKVVCLLNNFYPREAKVQWKVDNALQSGNSKESVTEQDSKDSTYSLSSTLTLSKADYEKHKVYACEVTHQGLSSPVTKSFNRGEC

Legend:
[1] = target: HLA-DQ2.5 on IHW09023 cells loaded with 33 mer gliadin peptide (human; wheat); test: cell-based or functional assay
[2] = target: HLA-DQ2.5 on IHW09023 cells loaded with omega1/2 gliadin peptide (human; wheat); test: cell-based or functional assay
[3] = target: HLA-DQ2.5 on IHW09023 cells loaded with BC hordein peptide (human; barley); test: cell-based or functional assay
[4] = target: HLA-DQ2.5 on IHW09023 cells loaded with gamma 1 gliadin peptide (human; wheat); test: cell-based or functional assay
[5] = target: HLA-DQ2.5 on IHW09023 cells loaded with gamma 2 gliadin peptide (human; wheat); test: cell-based or functional assay
[6] = target: HLA-DQ2.5 on IHW09023 cells loaded with gamma 3 gliadin peptide (human; wheat); test: cell-based or functional assay
[7] = target: HLA-DQ2.5 on IHW09023 cells loaded with gamma 4a gliadin peptide (human; wheat); test: cell-based or functional assay
[8] = target: HLA-DQ2.5 on IHW09023 cells loaded with gamma 4d gliadin peptide (human; wheat); test: cell-based or functional assay
HLA-DQ5.1 on Ba/F3 cells = target: T1, HLA-DQ5.1 on Ba/F3 cells; test: FACS, Ba/F3 cells; raw MFI
HLA-DQ6.3 on Ba/F3 cells = target: T2, HLA-DQ6.3 on Ba/F3 cells; test: FACS, Ba/F3 cells; raw MFI
HLA-DR on Ba/F3 cells = target: T3, HLA-DR on Ba/F3 cells; test: FACS, Ba/F3 cells; raw MFI
HLA-DP on Ba/F3 cells = target: T7, HLA-DP on Ba/F3 cells (human, UniProt P20036 29-222; P04440 30-225, limits assumed); test: FACS, Ba/F3 cells; raw MFI
T7 construct: whole, on cells; also called Ba/F3-HLA-DP
T7 sequence (P20036 29-222 limits assumed, chain 1 of 4, other chains not shown): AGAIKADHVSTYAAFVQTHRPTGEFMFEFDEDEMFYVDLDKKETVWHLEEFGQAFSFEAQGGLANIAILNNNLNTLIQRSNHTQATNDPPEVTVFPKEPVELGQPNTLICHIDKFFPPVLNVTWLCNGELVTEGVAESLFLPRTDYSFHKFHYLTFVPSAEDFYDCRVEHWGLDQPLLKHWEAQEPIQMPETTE
T7 sequence (P04440 30-225 limits assumed, chain 2 of 4, other chains not shown): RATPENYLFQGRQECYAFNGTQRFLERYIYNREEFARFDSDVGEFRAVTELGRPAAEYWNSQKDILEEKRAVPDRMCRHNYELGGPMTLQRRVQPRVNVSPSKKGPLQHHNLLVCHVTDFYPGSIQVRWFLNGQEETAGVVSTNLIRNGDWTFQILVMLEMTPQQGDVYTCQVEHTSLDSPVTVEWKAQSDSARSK

HLA-DQ2.5 on Ba/F3 cells [9] = target: T8, HLA-DQ2.5 on Ba/F3 cells (human, UniProt P01909 24-216, limits assumed); test: FACS, Ba/F3 cells; %MFI with IC17dK 0 and DQN0139bb 100
T8 construct: whole, on cells; MHC class II without a fused peptide; also called Ba/F3-HLA-DQ2.5

HLA-DQ2.2 on Ba/F3 cells [10] = target: T4, HLA-DQ2.2 on Ba/F3 cells; test: as above
HLA-DQ7.5 on Ba/F3 cells [11] = target: T9, HLA-DQ7.5 on Ba/F3 cells (human, UniProt P01909 24-216; P01920 33-230, limits assumed); test: as above
T9 construct: whole, on cells; also called Ba/F3-HLA-DQ7.5

HLA-DQ8 on Ba/F3 cells [12] = target: T5, HLA-DQ8 on Ba/F3 cells; test: as above
HLA-DQ7.3 on Ba/F3 cells [13] = target: T6, HLA-DQ7.3 on Ba/F3 cells; test: as above
HLA-DQ2.5 on Ba/F3 cells [14] = target: T8, HLA-DQ2.5 on Ba/F3 cells; test: as above; remark: listed apart in the source
HLA-DQ2.2 on Ba/F3 cells [15] = target: T4, HLA-DQ2.2 on Ba/F3 cells; test: as above
HLA-DQ7.5 on Ba/F3 cells [16] = target: T9, HLA-DQ7.5 on Ba/F3 cells; test: as above; remark: listed apart in the source
HLA-DQ8 on Ba/F3 cells [17] = target: T5, HLA-DQ8 on Ba/F3 cells; test: as above
HLA-DQ7.3 on Ba/F3 cells [18] = target: T6, HLA-DQ7.3 on Ba/F3 cells; test: as above

Row | Binder | IC50, α1a gliadin TCR, 250 nM 33mer gliadin [1] [ng/mL] | IC50, α1b gliadin TCR, 250 nM 33mer gliadin [1] [ng/mL] | IC50, α2 gliadin TCR, 250 nM 33mer gliadin [1] [ng/mL] | IC50, ω1 gliadin TCR, 25 µM ω1/2 gliadin [2] [ng/mL] | IC50, ω2 gliadin TCR, 250 nM ω1/2 gliadin [2] [ng/mL] | IC50, BC hordein TCR, 250 nM BC hordein [3] [ng/mL] | IC50, γ1 gliadin TCR, 250 nM γ1 gliadin [4] [ng/mL] | IC50, γ2 gliadin TCR, 250 nM γ2 gliadin [5] [ng/mL] | IC50, γ3 gliadin TCR, 100 µM γ3 gliadin [6] [ng/mL] | IC50, γ4a gliadin TCR, 25 µM γ4a gliadin [7] [ng/mL] | IC50, γ4d gliadin TCR, 100 µM γ4d gliadin [8] [ng/mL] | binding result (HLA-DQ5.1 on Ba/F3 cells) | binding result (HLA-DQ6.3 on Ba/F3 cells) | binding result (HLA-DR on Ba/F3 cells) | binding result (HLA-DP on Ba/F3 cells) | also measured
1 | B1 | 0.26 | 1.13 | 0.38 | 1.88 | 0.27 | 11.6 | 1.71 | 279 | 3.15 | 1730 | 3.15 | no binding (tested: 0.05 ug/mL) | no binding (tested: 0.05 ug/mL) | no binding (tested: 0.05 ug/mL) | no binding (tested: 0.05 ug/mL) | binding result (HLA-DQ2.5 on Ba/F3 cells [9]): no binding (tested: 0.05 ug/mL); binding result (HLA-DQ2.2 on Ba/F3 cells [10]): no binding (tested: 0.05 ug/mL); binding result (HLA-DQ7.5 on Ba/F3 cells [11]): no binding (tested: 0.05 ug/mL); binding result (HLA-DQ8 on Ba/F3 cells [12]): no binding (tested: 0.05 ug/mL); binding result (HLA-DQ7.3 on Ba/F3 cells [13]): no binding (tested: 0.05 ug/mL)
2 | B2 | 0.29 | 1.13 | 0.34 | 1.17 | 0.17 | 8.78 | 0.56 | 100 | 2.29 | 1250 | 2.06 | no binding (tested: 0.05 ug/mL) | no binding (tested: 0.05 ug/mL) | no binding (tested: 0.05 ug/mL) | no binding (tested: 0.05 ug/mL) | binding result (HLA-DQ2.5 on Ba/F3 cells [14]): no binding (tested: 0.05 ug/mL); binding result (HLA-DQ2.2 on Ba/F3 cells [15]): no binding (tested: 0.05 ug/mL); binding result (HLA-DQ7.5 on Ba/F3 cells [16]): no binding (tested: 0.05 ug/mL); binding result (HLA-DQ8 on Ba/F3 cells [17]): no binding (tested: 0.05 ug/mL); binding result (HLA-DQ7.3 on Ba/F3 cells [18]): no binding (tested: 0.05 ug/mL)
